The results in this text go back to publication PMC13219714, “μ₃-Oxo nucleophile formation enables efficient SN2 hydrolysis at the trinuclear metal center in inorganic pyrophosphatase” (Communications Chemistry, 2026).

The Km is the substrate concentration at which the rate is half of its maximum. In general, kcat refers to the number of substrate molecules converted per active site and unit of time at saturation. What is called kcat/Km is the second-order rate constant that governs catalysis at low substrate concentration.

Series [1] has as its target T1, ShPPase (Family II inorganic pyrophosphatase from Shewanella sp. AS-11) (Shewanella sp. AS-11, UniProt L8AXY8).
T1 construct: gene ppia; recombinant from pET16b in E. coli BL21(DE3); purified as previously described
T1 sequence (L8AXY8 2-308): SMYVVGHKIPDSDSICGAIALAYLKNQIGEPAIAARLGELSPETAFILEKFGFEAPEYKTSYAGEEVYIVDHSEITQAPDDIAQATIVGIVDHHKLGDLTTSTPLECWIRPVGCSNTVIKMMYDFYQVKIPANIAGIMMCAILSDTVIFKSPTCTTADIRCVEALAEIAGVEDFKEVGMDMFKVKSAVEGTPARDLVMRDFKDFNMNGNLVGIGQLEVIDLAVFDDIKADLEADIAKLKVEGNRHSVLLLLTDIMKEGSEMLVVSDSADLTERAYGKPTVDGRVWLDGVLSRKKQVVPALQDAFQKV
Nature of the series: Zn K-edge XANES / EXAFS. To be noted: Zn2+-ShPPase 1.1 mM, 0.1 M PNP, 0.1 M MgCl2, pH 7.5; active site, trinuclear metal center. The class given is binding.

Substrate in series [2]: O=P(O)(O)OP(=O)(O)O
The series is described as follows: molybdenum blue phosphate release. The class given is biochemical, Shewanella sp. AS-11. To be noted: Zn2+-activated enzyme, 5 mM MgCl2, 50 mM KCl, 100 mM Tris-HCl pH 7.5, 25 °C. The source says: molybdenum blue phosphate release on ShPPase (Family II inorganic pyrophosphatase from Shewanella sp. AS-11)

[3] abbreviates: primers for D14N and D14A appear exchanged.

With `O=P(O)(O)NP(=O)(O)O` [PNP, imidodiphosphate], the “Zn K-edge XANES / EXAFS” value in series [1] was “Zn²⁺ ions are predominantly five-coordinate in the substrate-free form, but transition to six-coordinate upon PNP binding”.

B1: ShPPase (Family II inorganic pyrophosphatase from Shewanella sp. AS-11) (Shewanella sp. AS-11) (protein)
chain: SMYVVGHKIPDSDSICGAIALAYLKNQIGEPAIAARLGELSPETAFILEKFGFEAPEYKTSYAGEEVYIVDHSEITQAPDDIAQATIVGIVDHHKLGDLTTSTPLECWIRPVGCSNTVIKMMYDFYQVKIPANIAGIMMCAILSDTVIFKSPTCTTADIRCVEALAEIAGVEDFKEVGMDMFKVKSAVEGTPARDLVMRDFKDFNMNGNLVGIGQLEVIDLAVFDDIKADLEADIAKLKVEGNRHSVLLLLTDIMKEGSEMLVVSDSADLTERAYGKPTVDGRVWLDGVLSRKKQVVPALQDAFQKV
notes: recombinant from pET16b in E. coli BL21(DE3); purified as previously described
Regarding B1, in series [2], the Km is 79 ± 18 µM, the kcat stood at 99.8 ± 5.5 s⁻¹ and the kcat/Km came to 1.26e+06 M⁻¹ s⁻¹.

B2: ShPPase (Family II inorganic pyrophosphatase from Shewanella sp. AS-11) (Shewanella sp. AS-11; D14A) (protein)
chain: SMYVVGHKIPDSASICGAIALAYLKNQIGEPAIAARLGELSPETAFILEKFGFEAPEYKTSYAGEEVYIVDHSEITQAPDDIAQATIVGIVDHHKLGDLTTSTPLECWIRPVGCSNTVIKMMYDFYQVKIPANIAGIMMCAILSDTVIFKSPTCTTADIRCVEALAEIAGVEDFKEVGMDMFKVKSAVEGTPARDLVMRDFKDFNMNGNLVGIGQLEVIDLAVFDDIKADLEADIAKLKVEGNRHSVLLLLTDIMKEGSEMLVVSDSADLTERAYGKPTVDGRVWLDGVLSRKKQVVPALQDAFQKV
notes: as for B1
Regarding B2, in series [2], the Km came out at 179 ± 37 µM, the kcat stood at 0.019 ± 0.001 s⁻¹ and the specificity constant (kcat/Km) stood at 110 M⁻¹ s⁻¹.

B3: ShPPase (Family II inorganic pyrophosphatase from Shewanella sp. AS-11) (Shewanella sp. AS-11; D14N) (protein)
chain: SMYVVGHKIPDSNSICGAIALAYLKNQIGEPAIAARLGELSPETAFILEKFGFEAPEYKTSYAGEEVYIVDHSEITQAPDDIAQATIVGIVDHHKLGDLTTSTPLECWIRPVGCSNTVIKMMYDFYQVKIPANIAGIMMCAILSDTVIFKSPTCTTADIRCVEALAEIAGVEDFKEVGMDMFKVKSAVEGTPARDLVMRDFKDFNMNGNLVGIGQLEVIDLAVFDDIKADLEADIAKLKVEGNRHSVLLLLTDIMKEGSEMLVVSDSADLTERAYGKPTVDGRVWLDGVLSRKKQVVPALQDAFQKV
notes: as for B1
With B3, in series [2] (setting [3]), the Km is 100 ± 20 µM, the kcat was 0.034 ± 0.002 s⁻¹ and the kcat/Km was found to be 340 M⁻¹ s⁻¹.
